Laboratory results published in patent US20220143153A1, “COMPOSITIONS AND METHODS FOR TREATING ACNE” (priority 2019, published 2022).

System: PBMCs
Experiment: Cytokine secretion from PBMCs stimulated with nuclease-treated live C. acnes (ELISA)
Type: cell-based, human
Details: live C. acnes digested with nuclease at 37° C. for 1 hour, PBMCs stimulated 24 h
Procedure: FIGS. 3A-3D: PBMCs were stimulated with untreated, heat-killed (HK), Rnase I, or Dnase I treated live CA(HL5PA1), CH (HL110PA4), LPS, or 19 kD (TLR1/2L) for 24 h. Cytokine secretions were measured by ELISA.
Cells purification and culture. Whole blood was obtained from healthy donors who provided written informed consent (UCLA Institutional Review Board). PBMCs were isolated by Ficoll-Paque (Amersham Bioscience) density gradient centrifugation and cultured in RPMI 1640 (Gibco) supplemented with 10% fetal bovine serum (FBS) (Seradigm) at a density of 2.5×10^6/mL in a 24-well flat bottomed plate.
Bacterial treatment. Live bacteria were heat-killed at 95° C. for 10 minutes and cooled on ice before addition of bacteria to cell culture. Live bacteria were digested using RNase I (Promega) or DNase I (Invitrogen) and incubated at 37° C. for 1 hour. Nucleases were inactivated with 0.1% SDS.
Cytokine Quantification. Cell culture supernatants were harvested at 24 hours unless otherwise noted. Cytokines measured by sandwich ELISA using antibody pairs were as follows: IL-18, IL-1β, IFN-β (R&D Duoset), IFN-γ (BD), IL-6, IL-10, TNF-α (Invitrogen).

B1: RNase I: RNase I (Promega), enzyme that catalyzes the hydrolysis of RNA; used to digest live bacteria (protein, UniProt P21338 24-268, looked up)
Ribonuclease I: LALQAKQYGDFDRYVLALSWQTGFCQSQHDRNRNERDECRLQTETTNKADFLTVHGLWPGLPKSVAARGVDERRWMRFGCATRPIPNLPEARASRMCSSPETGLSLETAAKLSEVMPGAGGRSCLERYEYAKHGACFGFDPDAYFGTMVRLNQEIKESEAGKFLADNYGKTVSRRDFDAAFAKSWGKENVKAVKLTCQGNPAYLTEIQISIKADAINAPLSANSFLPQPHPGNCGKTFVIDKAGY
  IFN-γ secretion from PBMCs: eliminated
  IL-6 secretion from PBMCs: eliminated
  IL-10 secretion from PBMCs: eliminated
  TNF-α secretion from PBMCs: eliminated
Listed as RNase
  IFN-γ secretion from PBMCs: abrogated
